How the values were obtained:
Assay in all cases: SPR (Biacore), bound amount, IL6R-BF648/IL6R-L = 100
[1] = biological target: T1, FcγRIIIa type V (human, UniProt P08637 17-208, limits assumed)
T1 construct: also called FcγRIIIaV; FcgRIIIaV
Experimental: (§1) According to the following method, relative binding activities were calculated for the results of analyzing interactions with the respective FcγRs.

[2] = biological target: T2, FcγRIa (human, UniProt P12314 16-292, limits assumed)
T2 construct: also called FcgRIa; CD64
Experimental: as §1

[3] = biological target: T3, FcγRIIb (human, UniProt P31994 43-217, limits assumed)
T3 construct: also called FcgRIIb; FcγIIB
T3 sequence: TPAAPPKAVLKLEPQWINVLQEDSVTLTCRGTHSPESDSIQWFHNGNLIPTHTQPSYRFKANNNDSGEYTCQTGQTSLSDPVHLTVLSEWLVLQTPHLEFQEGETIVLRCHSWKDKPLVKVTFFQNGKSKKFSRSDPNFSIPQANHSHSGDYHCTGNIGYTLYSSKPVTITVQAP
Experimental: as §1

[4] = biological target: T4, FcγRIIa type H (human, UniProt P12318 36-217)
T4 construct: also called FcγRIIaH; FcγRIIH
T4 sequence: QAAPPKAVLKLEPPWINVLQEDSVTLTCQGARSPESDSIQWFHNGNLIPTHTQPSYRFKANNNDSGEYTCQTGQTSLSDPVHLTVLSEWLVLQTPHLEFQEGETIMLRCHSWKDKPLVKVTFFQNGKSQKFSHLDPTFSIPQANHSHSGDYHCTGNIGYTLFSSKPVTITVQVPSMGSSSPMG
Experimental: as §1

T1 sequence (P08637 other isoform, or with tags, fused parts or gaps limits assumed): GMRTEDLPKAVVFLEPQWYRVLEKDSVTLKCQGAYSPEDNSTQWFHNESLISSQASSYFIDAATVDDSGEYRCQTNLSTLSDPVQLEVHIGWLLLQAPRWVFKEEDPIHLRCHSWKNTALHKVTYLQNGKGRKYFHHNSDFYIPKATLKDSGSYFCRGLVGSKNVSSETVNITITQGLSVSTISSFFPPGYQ
T2 sequence (P12314 16-292 limits assumed): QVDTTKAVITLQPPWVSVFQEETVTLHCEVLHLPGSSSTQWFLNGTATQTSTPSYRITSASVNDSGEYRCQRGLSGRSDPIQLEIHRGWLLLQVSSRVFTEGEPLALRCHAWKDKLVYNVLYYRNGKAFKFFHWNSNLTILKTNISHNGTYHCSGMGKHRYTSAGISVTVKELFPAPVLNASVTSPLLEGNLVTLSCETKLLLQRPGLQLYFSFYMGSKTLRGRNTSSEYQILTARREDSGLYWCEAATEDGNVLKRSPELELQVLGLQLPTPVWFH

B1: IL6R-2B253/IL6R-L (antibody, human IgG1)
heavy: QVQLQESGPGLVKPSETLSLTCAVSGHSISHDHAWSWVRQPPGEGLEWIGFISYSGITNYNPSLQGRVTISRDNSKNTLYLQMNSLRAEDTAVYYCARSLARTTAMDYWGEGTLVTVSSASTKGPSVFPLAPSSKSTSGGTAALGCLVKDYFPEPVTVSWNSGALTSGVHTFPAVLQSSGLYSLSSVVTVPSSSLGTQTYICNVNHKPSNTKVDKKVEPKSCDKTHTCPPCPAPDLLGGDSVFLFPPKPKDTLMISRTPEVTCVVVDVSHEDPEVKFNWYVDGVEVHNAKTKPREEQYNSTYRVVSVLTVLHQDWLNGKEYKCKMSNKALPAPIEKTISKAKGQPREPQVYTLPPSRDELTKNQVSLTCLVKGFYPSDIAVEWESNGQPENNYKTTPPVLDSDGSFFLYSKLTVDKSRWQQGNVFSCSVMHEALHNHYTQESLSLSP
light: DIQMTQSPSSLSASVGDRVTITCRASQDISSYLNWYQQKPGKAPKLLIYYTSRLHSGVPSRFSGSGSGTDFTFTISSLQPEDIATYYCQQGNTLPYTFGQGTKVEIK
notes: IgG1; Fc variant of IL6R-B3; copies: 2 + 2
[1]
  relative binding activity: 126 % of control
[2]
  relative binding activity: 155 % of control
[3]
  relative binding activity: 156 % of control
[4]
  relative binding activity: 207 % of control

B2: IL6R-BP151/IL6R-L (antibody, human IgG1)
heavy: QVQLQESGPGLVKPSETLSLTCAVSGHSISHDHAWSWVRQPPGEGLEWIGFISYSGITNYNPSLQGRVTISRDNSKNTLYLQMNSLRAEDTAVYYCARSLARTTAMDYWGEGTLVTVSSASTKGPSVFPLAPSSKSTSGGTAALGCLVKDYFPEPVTVSWNSGALTSGVHTFPAVLQSSGLYSLSSVVTVPSSSLGTQTYICNVNHKPSNTKVDKKVEPKSCDKTHTCPPCPAPDYLGDDSVFLFPPKPKDTLMISRTPEVTCVVVDVSHEDPEVKFNWYVDGVEVHNAKTKPREEQYNSTYRVVSVLTVLHQDWLNGKEYKCKVSNAALPRPIEKTISKAKGQPREPQVYTLPPSRDELTKNQVSLTCLVKGFYPSDIAVEWESNGQPENNYKTTPPVLDSDGSFFLYSKLTVDKSRWQQGNVFSCSVMHEALHNHYTQESLSLSP
light: DIQMTQSPSSLSASVGDRVTITCRASQDISSYLNWYQQKPGKAPKLLIYYTSRLHSGVPSRFSGSGSGTDFTFTISSLQPEDIATYYCQQGNTLPYTFGQGTKVEIK
notes: as for B1
[1]
  relative binding activity: 221 % of control
[2]
  relative binding activity: 39 % of control
[4]
  relative binding activity: 621 % of control

B3: IL6R-BP195/IL6R-L (antibody, human IgG1)
heavy: QVQLQESGPGLVKPSETLSLTCAVSGHSISHDHAWSWVRQPPGEGLEWIGFISYSGITNYNPSLQGRVTISRDNSKNTLYLQMNSLRAEDTAVYYCARSLARTTAMDYWGEGTLVTVSSASTKGPSVFPLAPSSKSTSGGTAALGCLVKDYFPEPVTVSWNSGALTSGVHTFPAVLQSSGLYSLSSVVTVPSSSLGTQTYICNVNHKPSNTKVDKKVEPKSCDKTHTCPPCPAPDYLGDDSVFLFPPKPKDTLMISRTPEVTCVVVDVSDEDGEVKFNWYVDGVEVHNAKTKPREEQDNSTYRVVSVLTVLHQDWLNGKEYKCKVSNAALPKPIEKTISKAKGQPREPQVYTLPPSRDELTKNQVSLTCLVKGFYPSDIAVEWESNGQPENNYKTTPPVLDSDGSFFLYSKLTVDKSRWQQGNVFSCSVMHEALHNHYTQESLSLSP
light: DIQMTQSPSSLSASVGDRVTITCRASQDISSYLNWYQQKPGKAPKLLIYYTSRLHSGVPSRFSGSGSGTDFTFTISSLQPEDIATYYCQQGNTLPYTFGQGTKVEIK
notes: as for B1
[1]
  relative binding activity: 221 % of control
[2]
  relative binding activity: 66 % of control
[4]
  relative binding activity: 344 % of control

B4: IL6R-2B261/IL6R-L (antibody, human IgG1)
heavy: QVQLQESGPGLVKPSETLSLTCAVSGHSISHDHAWSWVRQPPGEGLEWIGFISYSGITNYNPSLQGRVTISRDNSKNTLYLQMNSLRAEDTAVYYCARSLARTTAMDYWGEGTLVTVSSASTKGPSVFPLAPSSKSTSGGTAALGCLVKDYFPEPVTVSWNSGALTSGVHTFPAVLQSSGLYSLSSVVTVPSSSLGTQTYICNVNHKPSNTKVDKKVEPKSCDKTHTCPPCPAPDLLGGDSVFLFPPKPKDTLMISRTPEVTCVVVDVSHEDPEVKFNWYVDGVEVHNAKTKPREEQDNSTYRVVSVLTVLHQDWLNGKEYKCKVSNKALPAPIEKTISKAKGQPREPQVYTLPPSRDELTKNQVSLTCLVKGFYPSDIAVEWESNGQPENNYKTTPPVLDSDGSFFLYSKLTVDKSRWQQGNVFSCSVMHEALHNHYTQESLSLSP
light: DIQMTQSPSSLSASVGDRVTITCRASQDISSYLNWYQQKPGKAPKLLIYYTSRLHSGVPSRFSGSGSGTDFTFTISSLQPEDIATYYCQQGNTLPYTFGQGTKVEIK
notes: as for B1
[1]
  relative binding activity: 87 % of control
[2]
  relative binding activity: 100 % of control
[3]
  relative binding activity: 115 % of control
[4]
  relative binding activity: 91 % of control

B5: IL6R-BP211/IL6R-L (antibody, human IgG1)
heavy: QVQLQESGPGLVKPSETLSLTCAVSGHSISHDHAWSWVRQPPGEGLEWIGFISYSGITNYNPSLQGRVTISRDNSKNTLYLQMNSLRAEDTAVYYCARSLARTTAMDYWGEGTLVTVSSASTKGPSVFPLAPSSKSTSGGTAALGCLVKDYFPEPVTVSWNSGALTSGVHTFPAVLQSSGLYSLSSVVTVPSSSLGTQTYICNVNHKPSNTKVDKKVEPKSCDKTHTCPPCPAPDLLGGDSVFLFPPKPKDTLMISRTPEVTCVVVDVSDEDGEVKFNWYVDGVEVHNAKTKPREEQYNSTYRVVSVLTVLHQDWLNGKEYKCKVSNAALPRPIEKTISKAKGQPREPQVYTLPPSRDELTKNQVSLTCLVKGFYPSDIAVEWESNGQPENNYKTTPPVLDSDGSFFLYSKLTVDKSRWQQGNVFSCSVMHEALHNHYTQESLSLSP
light: DIQMTQSPSSLSASVGDRVTITCRASQDISSYLNWYQQKPGKAPKLLIYYTSRLHSGVPSRFSGSGSGTDFTFTISSLQPEDIATYYCQQGNTLPYTFGQGTKVEIK
notes: as for B1
[1]
  relative binding activity: 87 % of control
[2]
  relative binding activity: 128 % of control
[3]
  relative binding activity: 165 % of control

B6: IL6R-BP191/IL6R-L (antibody, human IgG1)
heavy: QVQLQESGPGLVKPSETLSLTCAVSGHSISHDHAWSWVRQPPGEGLEWIGFISYSGITNYNPSLQGRVTISRDNSKNTLYLQMNSLRAEDTAVYYCARSLARTTAMDYWGEGTLVTVSSASTKGPSVFPLAPSSKSTSGGTAALGCLVKDYFPEPVTVSWNSGALTSGVHTFPAVLQSSGLYSLSSVVTVPSSSLGTQTYICNVNHKPSNTKVDKKVEPKSCDKTHTCPPCPAPDLLGGDSVFLFPPKPKDTLMISRTPEVTCVVVDVSDEDGEVKFNWYVDGVEVHNAKTKPREEQYNSTYRVVSVLTVLHQDWLNGKEYKCKVSNAALPKPIEKTISKAKGQPREPQVYTLPPSRDELTKNQVSLTCLVKGFYPSDIAVEWESNGQPENNYKTTPPVLDSDGSFFLYSKLTVDKSRWQQGNVFSCSVMHEALHNHYTQESLSLSP
light: DIQMTQSPSSLSASVGDRVTITCRASQDISSYLNWYQQKPGKAPKLLIYYTSRLHSGVPSRFSGSGSGTDFTFTISSLQPEDIATYYCQQGNTLPYTFGQGTKVEIK
notes: as for B1
[1]
  relative binding activity: 142 % of control
[2]
  relative binding activity: 125 % of control
[4]
  relative binding activity: 145 % of control

B7: IL6R-BP190/IL6R-L (antibody, human IgG1)
heavy: QVQLQESGPGLVKPSETLSLTCAVSGHSISHDHAWSWVRQPPGEGLEWIGFISYSGITNYNPSLQGRVTISRDNSKNTLYLQMNSLRAEDTAVYYCARSLARTTAMDYWGEGTLVTVSSASTKGPSVFPLAPSSKSTSGGTAALGCLVKDYFPEPVTVSWNSGALTSGVHTFPAVLQSSGLYSLSSVVTVPSSSLGTQTYICNVNHKPSNTKVDKKVEPKSCDKTHTCPPCPAPELLGDDSVFLFPPKPKDTLMISRTPEVTCVVVDVSDEDGEVKFNWYVDGVEVHNAKTKPREEQYNSTYRVVSVLTVLHQDWLNGKEYKCKVSNKALPKPIEKTISKAKGQPREPQVYTLPPSRDELTKNQVSLTCLVKGFYPSDIAVEWESNGQPENNYKTTPPVLDSDGSFFLYSKLTVDKSRWQQGNVFSCSVMHEALHNHYTQESLSLSP
light: DIQMTQSPSSLSASVGDRVTITCRASQDISSYLNWYQQKPGKAPKLLIYYTSRLHSGVPSRFSGSGSGTDFTFTISSLQPEDIATYYCQQGNTLPYTFGQGTKVEIK
notes: as for B1
[1]
  relative binding activity: 155 % of control
[2]
  relative binding activity: 50 % of control
[4]
  relative binding activity: 224 % of control

B8: IL6R-BP131/IL6R-L (antibody, human IgG1)
heavy: QVQLQESGPGLVKPSETLSLTCAVSGHSISHDHAWSWVRQPPGEGLEWIGFISYSGITNYNPSLQGRVTISRDNSKNTLYLQMNSLRAEDTAVYYCARSLARTTAMDYWGEGTLVTVSSASTKGPSVFPLAPSSKSTSGGTAALGCLVKDYFPEPVTVSWNSGALTSGVHTFPAVLQSSGLYSLSSVVTVPSSSLGTQTYICNVNHKPSNTKVDKKVEPKSCDKTHTCPPCPAPDLLGDDSVFLFPPKPKDTLMISRTPEVTCVVVDVSHEDPEVKFNWYVDGVEVHNAKTKPREEQYNSTYRVVSVLTVLHQDWLNGKEYKCKVSNKALPKPIEKTISKAKGQPREPQVYTLPPSRDELTKNQVSLTCLVKGFYPSDIAVEWESNGQPENNYKTTPPVLDSDGSFFLYSKLTVDKSRWQQGNVFSCSVMHEALHNHYTQESLSLSP
light: DIQMTQSPSSLSASVGDRVTITCRASQDISSYLNWYQQKPGKAPKLLIYYTSRLHSGVPSRFSGSGSGTDFTFTISSLQPEDIATYYCQQGNTLPYTFGQGTKVEIK
notes: as for B1
[1]
  relative binding activity: 118 % of control
[2]
  relative binding activity: 33 % of control
[4]
  relative binding activity: 253 % of control
